This note sets out measurements from patent publication US20240218374, “Nucleic Acid Compounds That Bind Coronavirus Proteins” (Somalogic Operating Co., Inc., published 2024).

This series addresses Spike RBD (SARS-CoV-2, UniProt P0DTC2 SEQ:1-223). Description: filter.

B1: 26874-29_4 (SL1111) (ssDNA)
DNA: CCTTGGGATACTATGCGTCCGACCGCTCGGACGGAGAAGG
modifications: Y=Tyr-dU, p=Nap-dC; printed …pYAYGpGYppGAppGpYpGGApGGAGAAGG [Tyr-dU: 9,12,14,18,27; Nap-dC: 11,16,19,20,23,24,26,28,32]
On to B1, for which the Kd – broadly, the free concentration of one partner at which half of the binding sites on the other are occupied at equilibrium, for simple one-to-one binding – was found to be 0.3 nM.
